# Measurements from patent US20040224408A1, “THAP proteins as nuclear receptors for chemokines and roles in transcriptional regulation, cell proliferation and cell differentiation” (published 2004).
# B1: human THAP1 (THanatos (death)-Associated Protein-1), full length (other)
# chain: MVQSCSAYGCKNRYDKDKPVSFHKFPLTRPSLCKEWEAAVRRKNFKPTKYSSICSEHFTPDCFKRECNNKLLKENAVPTIFLCTEPHDKKEDLLEPQEQLPPPPLPPPVSQVDAAIGLLMPPLQTPVNLSVFCDHNYTVEDTMHQRKRIHQLEQQVEKLRKKLKTAQQRCRRQERQLEKLKEVVHFQKEKDDVSERGYVILPNDYFEIVEVPA
# notes: It was tested as a Gal4-BD (pGBKT7) or Gal4-AD (pGADT7); also called hTHAP1; FLJ10477
# Experiments:
# [1] = target: T1, Par4 deletion mutant lacking the leucine zipper/death domain (amino acids 1-276) (human, UniProt Q96IZ0 1-274); experiment: yeast two-hybrid (His/Ade selection)
# T1 construct: Tested as a Gal4-BD or Gal4-AD fusion in yeast two-hybrid; also called Par4A; Par4Δ
# T1 sequence: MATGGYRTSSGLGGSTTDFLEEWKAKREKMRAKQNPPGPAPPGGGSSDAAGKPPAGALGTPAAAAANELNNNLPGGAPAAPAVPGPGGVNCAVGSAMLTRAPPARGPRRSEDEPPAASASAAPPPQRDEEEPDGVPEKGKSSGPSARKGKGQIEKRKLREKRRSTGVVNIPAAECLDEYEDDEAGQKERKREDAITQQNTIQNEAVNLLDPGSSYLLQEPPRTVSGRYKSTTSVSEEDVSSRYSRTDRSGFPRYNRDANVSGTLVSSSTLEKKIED
# Excerpt: We then examined whether the leucine zipper/death domain at the C-terminus of Par4, previously shown to be involved in Par4 binding to WT-1 and aPKC, was required for the interaction between THAP1 and Par4. Two Par4 mutants were constructed for that purpose, Par4A and Par4DD. Par4A lacks the leucine zipper/death domain while Par4DD contains this domain. pGBKT7-Par4A(amino acids 1-276) and pGADT7-Par4A. were constructed by sub-cloning a EcoRI-BglII fragment from pGADT7-Par4 into the EcoRI and BamHI sites of pGBKT7 and pGADT7. Par4DD (amino acids 250-342) was amplified by PCR, using pGBKT7-Par4 as template, with primers Par4.4 (5′-[…]-3′) (SEQ ID NO: 193) and Par4.5, and cloned into the EcoRI and BamHI sites of pGBKT7 and pGADT7 to obtain pGBKT7-Par4DD and pGADT7-Par4DD. Two-hybrid interaction between THAP1 and Par4 mutants was tested by cotransformation of AH109 with pGBKT7-THAP1 and pGADT7-Par4A or pGADT7-Par4DD and selection of transformants by His and Ade double auxotrophy according to manufacturer's instructions ([…] two-hybrid system 3, Clontech). […] Similar results were obtained when two-hybrid experiments were performed in the opposite orientation using Par4 or Par4 mutants (Par4A and Par4DD) as baits instead of THAP1 (FIG. 3A).
# [2] = target: T2, Glutathione S-transferase (GST) control protein (pGEX-2T) (UniProt P08515 1-218 = GST); experiment: GST pull-down, immobilized GST control, in vitro translated 35S-labelled THAP1
# T2 construct: Negative control immobilized on glutathione sepharose; also called GST beads; immobilized GST alone
# T2 sequence (P08515 whole entry): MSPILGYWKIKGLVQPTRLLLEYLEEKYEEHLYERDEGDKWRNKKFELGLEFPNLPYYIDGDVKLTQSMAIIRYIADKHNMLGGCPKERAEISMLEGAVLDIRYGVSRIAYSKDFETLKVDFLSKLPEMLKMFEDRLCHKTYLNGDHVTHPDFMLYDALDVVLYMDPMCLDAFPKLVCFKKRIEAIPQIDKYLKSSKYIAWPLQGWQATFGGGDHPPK
# Experimental: To confirm the interaction observed in yeast, we performed in vitro GST pull down assays. Par4DD, expressed as a GST-tagged fusion protein and immobilized on glutathione sepharose, was incubated with radiolabeled in vitro translated THAP1. To generate the GST-Par4DD expression vector, Par4DD (amino acids 250-342) was amplified by PCR with primers Par4.10 (5′-[…]-3′) (SEQ ID NO: 194) and Par4.5, and cloned in frame downstream of the Glutathion S-Transferase ORF, into the BamHI site of the pGEX-2T prokaryotic expression vector (Amersham Pharmacia Biotech, Saclay, France). GST-Par4DD(amino acids 250-342) fusion protein encoded by plasmid pGEX-2T-Par4DD and control GST protein encoded by plasmid pGEX-2T, were then expressed in E. Coli DH5α and purified by affinity chromatography with glutathione sepharose according to supplier's instructions (Amersham Pharmacia Biotech). The yield of proteins used in GST pull-down assays was determined by SDS-Polyarylamide Gel Electrophoresis (PAGE) and Coomassie blue staining analysis. In vitro-translated THAP1 was generated with the TNT-coupled reticulocyte lysate system (Promega, Madison, Wis., USA) using pGBKT7-THAP1 vector as template. […]
# [3] = target: T3, THAP1-N3 deletion mutant (amino acids 1-192) (human, UniProt Q9NVV9 1-192); experiment: yeast two-hybrid, pGADT7-THAP1 mutant with pGBKT7-SLC/CCL21
# T3 construct: Tested as a Gal4-BD or Gal4-AD fusion, as in vitro translated 35S-labelled protein and as an EGFP fusion
# T3 sequence: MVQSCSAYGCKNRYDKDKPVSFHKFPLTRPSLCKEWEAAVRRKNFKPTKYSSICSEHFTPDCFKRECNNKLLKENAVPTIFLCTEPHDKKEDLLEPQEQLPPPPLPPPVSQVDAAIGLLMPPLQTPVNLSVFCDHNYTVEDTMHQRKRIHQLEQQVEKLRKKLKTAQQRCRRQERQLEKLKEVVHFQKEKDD
# Experimental: (§1) Two-hybrid interaction between THAP1 mutants and chemokine SLC/CCL21 was tested by cotransformation of AH109 with pGADT7-THAP1-C1, -C2, -C3, -N1, -N2 or -N3 and pGBKT7-SLC/CCL21 and selection of transformants by His and Ade double auxotrophy according to manufacturer's instructions ([…] two-hybrid system 3, Clontech). pGBKT7-SLC/CCL21 vector was generated by subcloning the BamHI SLC/CCL21 fragment from pGBT9-SLC (see example 1) into the unique BamHI cloning site of vector pGBKT7 (Clontech).
# [4] = target: T4, THAP1-C1 deletion mutant (amino acids 90-213) (human, UniProt Q9NVV9 90-213); experiment: as above
# T4 construct: Tested as a Gal4-BD or Gal4-AD fusion, as in vitro translated 35S-labelled protein and as an EGFP fusion; also called THAP1ΔTHAP; THAP1?THAP
# T4 sequence: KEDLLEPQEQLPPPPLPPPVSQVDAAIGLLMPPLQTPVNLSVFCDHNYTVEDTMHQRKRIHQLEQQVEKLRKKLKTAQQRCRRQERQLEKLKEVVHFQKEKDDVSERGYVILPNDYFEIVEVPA
# Experimental: as §1
# [5] = target: T5, THAP1-N2 deletion mutant (amino acids 1-166) (human, UniProt Q9NVV9 1-166); experiment: as above
# T5 construct: Tested as a Gal4-BD or Gal4-AD fusion, as in vitro translated 35S-labelled protein and as an EGFP fusion
# T5 sequence: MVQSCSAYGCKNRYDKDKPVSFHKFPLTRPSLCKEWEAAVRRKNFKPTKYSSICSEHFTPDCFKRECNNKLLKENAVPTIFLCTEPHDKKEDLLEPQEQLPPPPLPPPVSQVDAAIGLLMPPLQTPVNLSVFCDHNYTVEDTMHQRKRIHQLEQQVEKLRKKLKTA
# Experimental: as §1
# [6] = target: T2, Glutathione S-transferase (GST) control …; experiment: GST pull-down, immobilized GST control, in vitro translated 35S-labelled SLC/CCL21
# [7] = target: B1; experiment: yeast two-hybrid screen of the pGAD424-HEVEC cDNA library with pGBT9-SLC bait (His selection)
# Excerpt: In an effort to define the function of novel HEVEC proteins and the cellular pathways involved, we used different baits to screen a two-hybrid cDNA library generated from microvascular human HEV endothelial cells (HEVEC). HEVEC were purified from human tonsils by immunomagnetic selection with monoclonal antibody MECA-79 as previously described (Girard and Springer (1995) Immunity 2:113-123). The SMART PCR cDNA library Construction Kit (Clontech, Palo Alto, Calif., USA) was first used to generate full-length cDNAs from 1 μg HEVEC total RNA. Oligo-dT-primed HEVEC cDNA were then digested with SfiI and directionally cloned into pGAD424-Sfi, a two-hybrid vector generated by inserting a SfiI linker (5′-[…]-3′) (SEQ ID NO: 181) between EcoRI and BamHI cloning sites of pGAD424 (Clontech). The resulting pGAD424-HEVEC cDNA two-hybrid library (mean insert size>1 kb, ˜3×10⁶ independant clones) was amplified in E. coli. […]
binder,measurement,setting,value
B1,binding result,[1],no binding
same,binding result,[2],no binding
"human chemokine SLC/CCL21, mature form (amino acids 24-134) (ligand, also called SLC/6Ckine; SLC/CCL21 wild type) SDGGAQDCCLKYSQRKIPAKVVRSYRKQEPSLGCSIPAILFLPRKRSQAELCADPKELWVQQLMQHLDKTPSPQKPAQGCRKDRGASKTGKKGKGSKGCKRTERSQTPKGP",binding result,[3],no binding
same,binding result,[4],binds
same,binding result,[5],no binding
same,binding result,[6],no binding
same,binding result,[7],binds
